Measured values: patent publication US20110118131A1 (published 2011)
Substitutions are numbered along the chain they refer to. Names may count otherwise.

B1: XPA23 light chain D92E (Fab, V domains shown)
VH: EVQLLESGGGLVQPGGSLRLSCAASGFTFSKYFMFWVRQAPGKGLEWVSVISPSGGMTRYADSVKGRFTISRDNSKNTLYLQMNSLRAEDTAVYYCARVGYGGNSDYWGQGTLVTVSS
VL: DIQMTQSPSSVSASVGDRLTIICRASQDINRWLAWYQQTPGNAPKLLIHSATSLQSGVPSRFSGSGSGTDFTLTINSLQPEDFATYYCQQAESFPLTFGGGTKVEIK
B2: XPA23 light chain D92W (Fab, V domains shown)
VH: B1 VH
VL: B1 VL with E92W
B3: XPA23 light chain L96Q (Fab, V domains shown)
VH: B1 VH
VL: B1 VL with E92D, L96Q
B4: XPA23 light chain H49R (Fab, V domains shown)
VH: B1 VH
VL: B1 VL with H49R, E92D
B5: XPA23 light chain H49E (Fab, V domains shown)
VH: B1 VH
VL: B1 VL with H49E, E92D
B6: XPA23 light chain H49P (Fab, V domains shown)
VH: B1 VH
VL: B1 VL with H49P, E92D
B7: XPA23 light chain L96K (Fab, V domains shown)
VH: B1 VH
VL: B1 VL with E92D, L96K
B8: XPA23 light chain H49T (Fab, V domains shown)
VH: B1 VH
VL: B1 VL with H49T, E92D
B9: XPA23 light chain D92R (Fab, V domains shown)
VH: B1 VH
VL: B1 VL with E92R
B10: XPA23 light chain D92Q (Fab, V domains shown)
VH: B1 VH
VL: B1 VL with E92Q
B11: XPA23 light chain L96E (Fab, V domains shown)
VH: B1 VH
VL: B1 VL with E92D, L96E
B12: XPA23 light chain D92N (Fab, V domains shown)
VH: B1 VH
VL: B1 VL with E92N
B13: XPA23 light chain F94W (Fab, V domains shown)
VH: B1 VH
VL: B1 VL with E92D, F94W
B14: XPA23 light chain L96H (Fab, V domains shown)
VH: B1 VH
VL: B1 VL with E92D, L96H
B15: XPA23 light chain H49Y (Fab, V domains shown)
VH: B1 VH
VL: B1 VL with H49Y, E92D
B16: XPA23 light chain L96F (Fab, V domains shown)
VH: B1 VH
VL: B1 VL with E92D, L96F
B17: XPA23 light chain H49L (Fab, V domains shown)
VH: B1 VH
VL: B1 VL with H49L, E92D
B18: XPA23 light chain D92H (Fab, V domains shown)
VH: B1 VH
VL: B1 VL with E92H
B19: XPA23 light chain H49A (Fab, V domains shown)
VH: B1 VH
VL: B1 VL with H49A, E92D
B20: XPA23 light chain H49I (Fab, V domains shown)
VH: B1 VH
VL: B1 VL with H49I, E92D
B21: XPA23 light chain F94H (Fab, V domains shown)
VH: B1 VH
VL: B1 VL with E92D, F94H
B22: XPA23 light chain F94S (Fab, V domains shown)
VH: B1 VH
VL: B1 VL with E92D, F94S
B23: XPA23 light chain F94K (Fab, V domains shown)
VH: B1 VH
VL: B1 VL with E92D, F94K
B24: XPA23 light chain F94Y (Fab, V domains shown)
VH: B1 VH
VL: B1 VL with E92D, F94Y
B25: XPA23 light chain H49N (Fab, V domains shown)
VH: B1 VH
VL: B1 VL with H49N, E92D
B26: XPA23 light chain D92Y (Fab, V domains shown)
VH: B1 VH
VL: B1 VL with E92Y
B27: XPA23 light chain H49G (Fab, V domains shown)
VH: B1 VH
VL: B1 VL with H49G, E92D
B28: XPA23 light chain L96R (Fab, V domains shown)
VH: B1 VH
VL: B1 VL with E92D, L96R
B29: XPA23 light chain H49F (Fab, V domains shown)
VH: B1 VH
VL: B1 VL with H49F, E92D
B30: XPA23 light chain F94E (Fab, V domains shown)
VH: B1 VH
VL: B1 VL with E92D, F94E
B31: XPA23 light chain L96D (Fab, V domains shown)
VH: B1 VH
VL: B1 VL with E92D, L96D
B32: XPA23 light chain H49V (Fab, V domains shown)
VH: B1 VH
VL: B1 VL with H49V, E92D
B33: XPA23 light chain D92S (Fab, V domains shown)
VH: B1 VH
VL: B1 VL with E92S
B34: XPA23 light chain D92K (Fab, V domains shown)
VH: B1 VH
VL: B1 VL with E92K
B35: XPA23 light chain F94R (Fab, V domains shown)
VH: B1 VH
VL: B1 VL with E92D, F94R
B36: XPA23 light chain F94Q (Fab, V domains shown)
VH: B1 VH
VL: B1 VL with E92D, F94Q
B37: XPA23 light chain H49K (Fab, V domains shown)
VH: B1 VH
VL: B1 VL with H49K, E92D
B38: XPA23 light chain H49S (Fab, V domains shown)
VH: B1 VH
VL: B1 VL with H49S, E92D
B39: XPA23 light chain F94D (Fab, V domains shown)
VH: B1 VH
VL: B1 VL with E92D, F94D
B40: XPA23 light chain F94N (Fab, V domains shown)
VH: B1 VH
VL: B1 VL with E92D, F94N
B41: XPA23 light chain L96N (Fab, V domains shown)
VH: B1 VH
VL: B1 VL with E92D, L96N
B42: XPA23 light chain H49D (Fab, V domains shown)
VH: B1 VH
VL: B1 VL with H49D, E92D
B43: XPA23 light chain H49Q (Fab, V domains shown)
VH: B1 VH
VL: B1 VL with H49Q, E92D
B44: XPA23 light chain L96S (Fab, V domains shown)
VH: B1 VH
VL: B1 VL with E92D, L96S
B45: XPA23 light chain D92F (Fab, V domains shown)
VH: B1 VH
VL: B1 VL with E92F
B46: XPA23 light chain H49W (Fab, V domains shown)
VH: B1 VH
VL: B1 VL with H49W, E92D

The binders below were run against T1, IL-1β (UniProt P01584 117-269) (assay: Biacore, periplasmic extract).
T1 construct: Antigen immobilised on the Biacore chip

fold difference in affinity vs original [fold]	binding result	Binder
0.99	–	B1
0.12	–	B2
0.21	–	B3
0.21	–	B4
–	no binding	B5
0.86	–	B6
–	no binding	B7
–	no binding	B8
–	no binding	B9
0.56	–	B10
–	no binding	B11
0.67	–	B12
–	no binding	B13
0.07	–	B14
0.52	–	B15
0.28	–	B16
0.07	–	B17
0.63	–	B18
0.23	–	B19
–	no binding	B20
–	no binding	B21
–	no binding	B22
–	no binding	B23

fold difference in affinity vs original [fold]	binding result	Binder
–	no binding	B24
0.31	–	B25
–	no binding	B26
–	no binding	B27
–	no binding	B28
0.5	–	B29
–	no binding	B30
–	no binding	B31
–	no binding	B32
6.59	–	B33
0.23	–	B34
–	no binding	B35
–	no binding	B36
0.1	–	B37
0.14	–	B38
–	no binding	B39
–	no binding	B40
0.06	–	B41
0.11	–	B42
–	no binding	B43
0.23	–	B44
0.26	–	B45
0.21	–	B46
